Laboratory results taken from IntAct's records for PubMed 11779178.

B1: Merlin (Homo sapiens), P35240-3 (parent)
chain: MAGAIASRMSFSSLKRKQPKTFTVRIVTMDAEMEFNCEMKWKGKDLFDLVCRTLGLRETWFFGLQYTIKDTVAWLKMDKKVLDHDVSKEEPVTFHFLAKFYPENAEEELVQEITQHLFFLQVKKQILDEKIYCPPEASVLLASYAVQAKYGDYDPSVHKRGFLAQEELLPKRVINLYQMTPEMWEERITAWYAEHRGRARDEAEMEYLKIAQDLEMYGVNYFAIRNKKGTELLLGVDALGLHIYDPENRLTPKISFPWNEIRNISYSDKEFTIKPLDKKIDVFKFNSSKLRVNKLILQLCIGNHDLFMRRRKADSLEVQQMKAQAREEKARKQMERQRLAREKQMREEAERTRDELERRLLQMKEEATMANEALMRSEETADLLAEKAQITEEEAKLLAQKAAEAEQEMQRIKATAIRTEEEKRLMEQKVLEAEVLALKMAEESERRAKEADQLKQDLQEAREAERRAKQKLLEIATKPTYPPMNPIPAPLPPDIPSFNLIGDSLSFDFKDTDMKRLSMEIEKEKVEYMEKSKHLQEQLNELKTEIEALKLKERETALDILHNENSDRGGSSKHNTIKKPQAQGRRPICI

Key:
[1] = variants of: B1; settings: with eif3c_human EIF3C
HGS, O14964-2 = variants of: B1; settings: with HGS
HGS, O14964-1 = variants of: B1; settings: with HGS
NF2, P35240-1 = variants of: B1; settings: with NF2, P35240-1
[2] = variants of: B1; settings: with sptb2_human SPTBN1, Q01082
Sequence of sptb2_human SPTBN1, Q01082 (Q01082 whole entry): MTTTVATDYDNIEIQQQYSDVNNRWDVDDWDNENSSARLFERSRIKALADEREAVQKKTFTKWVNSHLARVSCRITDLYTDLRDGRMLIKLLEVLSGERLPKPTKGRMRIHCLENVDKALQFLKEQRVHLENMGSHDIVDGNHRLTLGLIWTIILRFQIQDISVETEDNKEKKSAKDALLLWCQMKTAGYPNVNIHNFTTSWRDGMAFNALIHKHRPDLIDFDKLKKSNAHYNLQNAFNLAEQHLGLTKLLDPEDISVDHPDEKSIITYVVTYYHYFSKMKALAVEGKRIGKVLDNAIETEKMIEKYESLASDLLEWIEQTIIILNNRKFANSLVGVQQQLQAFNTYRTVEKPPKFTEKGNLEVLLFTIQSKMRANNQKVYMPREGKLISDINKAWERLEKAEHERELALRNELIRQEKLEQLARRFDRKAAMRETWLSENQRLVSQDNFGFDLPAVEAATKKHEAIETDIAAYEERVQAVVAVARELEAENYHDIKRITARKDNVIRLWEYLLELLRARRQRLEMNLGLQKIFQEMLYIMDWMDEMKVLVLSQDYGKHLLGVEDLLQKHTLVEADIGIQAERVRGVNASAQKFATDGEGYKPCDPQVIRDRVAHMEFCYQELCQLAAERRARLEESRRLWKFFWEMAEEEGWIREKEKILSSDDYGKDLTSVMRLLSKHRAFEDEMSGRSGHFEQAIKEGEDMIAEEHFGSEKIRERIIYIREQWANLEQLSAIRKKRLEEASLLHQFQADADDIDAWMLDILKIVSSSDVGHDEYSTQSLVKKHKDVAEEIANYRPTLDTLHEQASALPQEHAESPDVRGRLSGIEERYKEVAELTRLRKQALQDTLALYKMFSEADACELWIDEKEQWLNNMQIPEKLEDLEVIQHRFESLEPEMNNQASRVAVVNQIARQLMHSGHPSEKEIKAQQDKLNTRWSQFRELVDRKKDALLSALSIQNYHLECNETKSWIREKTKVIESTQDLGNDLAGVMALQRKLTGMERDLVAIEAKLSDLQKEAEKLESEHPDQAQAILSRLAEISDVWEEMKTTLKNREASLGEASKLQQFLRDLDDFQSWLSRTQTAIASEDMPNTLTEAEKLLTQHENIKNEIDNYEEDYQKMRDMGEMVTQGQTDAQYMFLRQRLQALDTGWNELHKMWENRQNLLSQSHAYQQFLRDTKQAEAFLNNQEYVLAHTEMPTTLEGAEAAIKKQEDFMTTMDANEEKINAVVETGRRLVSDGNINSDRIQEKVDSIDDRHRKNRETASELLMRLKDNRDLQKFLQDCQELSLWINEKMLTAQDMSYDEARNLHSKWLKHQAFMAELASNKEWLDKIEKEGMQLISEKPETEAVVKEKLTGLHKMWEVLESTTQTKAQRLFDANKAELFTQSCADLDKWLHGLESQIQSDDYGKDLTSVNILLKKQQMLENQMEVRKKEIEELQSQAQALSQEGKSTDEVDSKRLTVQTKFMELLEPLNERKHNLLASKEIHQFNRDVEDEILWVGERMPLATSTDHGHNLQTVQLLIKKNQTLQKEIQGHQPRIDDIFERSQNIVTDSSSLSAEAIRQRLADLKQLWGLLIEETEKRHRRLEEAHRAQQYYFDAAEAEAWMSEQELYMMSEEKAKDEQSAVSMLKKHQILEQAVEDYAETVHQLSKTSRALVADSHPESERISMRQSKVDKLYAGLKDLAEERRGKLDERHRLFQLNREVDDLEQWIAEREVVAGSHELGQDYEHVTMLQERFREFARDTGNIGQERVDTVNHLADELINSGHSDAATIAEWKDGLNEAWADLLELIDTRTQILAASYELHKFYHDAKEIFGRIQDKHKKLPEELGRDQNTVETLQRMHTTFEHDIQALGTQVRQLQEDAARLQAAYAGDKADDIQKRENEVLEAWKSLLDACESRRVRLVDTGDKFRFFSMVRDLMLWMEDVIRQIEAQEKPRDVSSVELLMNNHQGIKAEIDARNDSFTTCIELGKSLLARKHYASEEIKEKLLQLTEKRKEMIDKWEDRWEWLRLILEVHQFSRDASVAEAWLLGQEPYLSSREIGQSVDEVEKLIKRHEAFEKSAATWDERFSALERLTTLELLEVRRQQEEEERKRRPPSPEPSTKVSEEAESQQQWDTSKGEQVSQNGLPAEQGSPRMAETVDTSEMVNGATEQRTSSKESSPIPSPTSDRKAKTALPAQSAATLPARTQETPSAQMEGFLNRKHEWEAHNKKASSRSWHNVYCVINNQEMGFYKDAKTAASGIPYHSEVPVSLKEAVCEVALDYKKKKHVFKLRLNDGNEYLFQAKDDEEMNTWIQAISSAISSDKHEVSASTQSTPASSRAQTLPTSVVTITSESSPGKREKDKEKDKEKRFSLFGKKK

Sequence of HGS, O14964-1 (O14964 whole entry): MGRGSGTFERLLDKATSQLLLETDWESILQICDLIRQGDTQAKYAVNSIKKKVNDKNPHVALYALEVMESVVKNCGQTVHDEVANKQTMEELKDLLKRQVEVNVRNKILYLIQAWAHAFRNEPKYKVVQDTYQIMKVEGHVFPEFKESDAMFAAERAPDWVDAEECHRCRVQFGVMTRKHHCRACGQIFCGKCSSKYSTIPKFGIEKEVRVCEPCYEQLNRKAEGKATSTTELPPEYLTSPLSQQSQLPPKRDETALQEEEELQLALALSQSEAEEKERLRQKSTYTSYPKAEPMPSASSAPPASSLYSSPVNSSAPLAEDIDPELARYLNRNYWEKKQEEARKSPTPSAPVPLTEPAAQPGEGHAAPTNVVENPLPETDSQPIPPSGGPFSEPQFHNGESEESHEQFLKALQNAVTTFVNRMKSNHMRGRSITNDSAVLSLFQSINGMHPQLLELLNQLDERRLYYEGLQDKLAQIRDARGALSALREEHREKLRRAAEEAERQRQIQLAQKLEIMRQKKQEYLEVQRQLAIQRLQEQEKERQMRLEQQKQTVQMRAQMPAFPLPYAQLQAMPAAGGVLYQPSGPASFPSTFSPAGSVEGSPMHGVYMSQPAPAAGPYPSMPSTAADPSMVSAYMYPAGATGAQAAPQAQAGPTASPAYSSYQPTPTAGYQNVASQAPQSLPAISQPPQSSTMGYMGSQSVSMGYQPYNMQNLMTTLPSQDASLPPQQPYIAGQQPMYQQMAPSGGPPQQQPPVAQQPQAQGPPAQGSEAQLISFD
Sequence of HGS, O14964-2 (O14964 other isoform, or with tags, fused parts or gaps): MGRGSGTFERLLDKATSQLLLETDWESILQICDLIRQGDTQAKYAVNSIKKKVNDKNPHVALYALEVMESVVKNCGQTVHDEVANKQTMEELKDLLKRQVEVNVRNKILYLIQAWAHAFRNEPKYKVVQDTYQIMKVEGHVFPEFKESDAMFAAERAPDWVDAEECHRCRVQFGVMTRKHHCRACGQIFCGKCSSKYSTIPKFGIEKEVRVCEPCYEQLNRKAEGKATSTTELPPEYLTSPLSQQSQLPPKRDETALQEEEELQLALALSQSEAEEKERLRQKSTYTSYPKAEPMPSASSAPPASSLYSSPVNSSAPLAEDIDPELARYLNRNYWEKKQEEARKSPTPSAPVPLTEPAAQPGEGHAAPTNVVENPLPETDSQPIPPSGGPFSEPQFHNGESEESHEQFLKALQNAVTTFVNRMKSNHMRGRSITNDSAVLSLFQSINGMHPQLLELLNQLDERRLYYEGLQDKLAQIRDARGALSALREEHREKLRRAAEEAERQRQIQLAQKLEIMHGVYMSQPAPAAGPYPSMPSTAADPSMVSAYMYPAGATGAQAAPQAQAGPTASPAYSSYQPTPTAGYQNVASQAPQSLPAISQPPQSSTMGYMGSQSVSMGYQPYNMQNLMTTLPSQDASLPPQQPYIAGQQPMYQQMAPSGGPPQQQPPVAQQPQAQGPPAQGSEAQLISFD

| Variant | effect of a mutation on the interaction [1] | effect of a mutation on the interaction (HGS, O14964-2) | effect of a mutation on the interaction (HGS, O14964-1) | effect of a mutation on the interaction (NF2, P35240-1) | effect of a mutation on the interaction [2] |
| --- | --- | --- | --- | --- | --- |
| MAGAIASRMSFSSLKRKQPKTFTVRIVTMDAEMEFNCEMKWKGKDLFDLVCRTLGLRETWFFGLQYTIKDTVAWLKMDKKVLDHDVSKEEPVTFHFLAKFYPENAEEELVQEITQHLFFLQVKKQILDEKIYCPPEASVLLASYAVQAKYGDYDPSVHKRGFLAQEELLPKRVINLYQMTPEMWEERITAWYAEHRGRARDEAEMEYLKIAQDLEMYGVNYFAIRNKKGTELLLGVDALGLHIYDPENRLTPKISFPWNEIRNISYSDKEFTIKPLDKKIDVFKFNSSKLRVNKLILQLCIGNHDLFMRRRKADSLEVQQMKAQAREEKARKQMERQRLAREKQMREEAERTRDELERRLLQMKEEATMANEALMRSEETADLLAEKAQITEEEAKLLAQKAAEAEQEMQRIKATAIRTEEEKRLMEQKVLEAEVLALKMAEESERRAKEADQLKQDLQEAREAERRAKQKLLEIATKPTYPPMNPIPAPLPPDIPSFNLIGDSLSFDFKDTDMKRLSMEIEKEKVEYMEKSKHPQEQLNELKTEIEALKLKERETALDILHNENSDRGGSSKHNTIKKPQAQGRRPICI [L535P] | disrupting interaction strength | disrupting interaction strength | disrupting interaction strength | decreasing interaction strength | disrupting interaction strength |
| MAGAIASRMSFSSLKRKQPKTFTVRIVTMDAEMEFNCEMKWKGKDLFDLVCRTLGLRETWFFGLQYTIKDTVAWLKMDKKVLDHDVSKEEPVTFHFLAKFYPENAEEELVQEITQHLFFLQVKKQILDEKIYCPPEASVLLASYAVQAKYGDYDPSVHKRGFLAQEELLPKRVINLYQMTPEMWEERITAWYAEHRGRARDEAEMEYLKIAQDLEMYGVNYFAIRNKKGTELLLGVDALGLHIYDPENRLTPKISFPWNEIRNISYSDKEFTIKPLDKKIDVFKFNSSKLRVNKLILQLCIGNHDLFMRRRKADSLEVQQMKAQAREEKARKQMERQRLAREKQMREEAERTRDELERRLLQMIEEATMANEALMRSEETADLLAEKAQITEEEAKLLAQKAAEAEQEMQRIKATAIRTEEEKRLMEQKVLEAEVLALKMAEESERRAKEADQLKQDLQEAREAERRAKQKLLEIATKPTYPPMNPIPAPLPPDIPSFNLIGDSLSFDFKDTDMKRLSMEIEKEKVEYMEKSKHLQEQLNELKTEIEALKLKERETALDILHNENSDRGGSSKHNTIKKPQAQGRRPICI [K364I] | disrupting interaction strength | disrupting interaction strength | disrupting interaction strength | decreasing interaction strength | disrupting interaction strength |
